Results from paper PMC3092982.

Assays:
[1] = target: Complement factor H (Homo sapiens) (UniProt P08603); conditions: cited from earlier work
C3d C3d (Homo sapiens) = C3d C3d (Homo sapiens) (UniProt P01024); conditions: cited from earlier work
[2] = target: FH fragment SCR-16/20 (human); assay: AUC; sedimentation velocity, SCR-16/20 at 0.1 mg/ml, Hepes buffer, 20 °C, c(s) analysis; monomer and dimer peaks across the ZnSO4 titration 0-600 μM

Chain of Complement factor H (P08603 19-1231): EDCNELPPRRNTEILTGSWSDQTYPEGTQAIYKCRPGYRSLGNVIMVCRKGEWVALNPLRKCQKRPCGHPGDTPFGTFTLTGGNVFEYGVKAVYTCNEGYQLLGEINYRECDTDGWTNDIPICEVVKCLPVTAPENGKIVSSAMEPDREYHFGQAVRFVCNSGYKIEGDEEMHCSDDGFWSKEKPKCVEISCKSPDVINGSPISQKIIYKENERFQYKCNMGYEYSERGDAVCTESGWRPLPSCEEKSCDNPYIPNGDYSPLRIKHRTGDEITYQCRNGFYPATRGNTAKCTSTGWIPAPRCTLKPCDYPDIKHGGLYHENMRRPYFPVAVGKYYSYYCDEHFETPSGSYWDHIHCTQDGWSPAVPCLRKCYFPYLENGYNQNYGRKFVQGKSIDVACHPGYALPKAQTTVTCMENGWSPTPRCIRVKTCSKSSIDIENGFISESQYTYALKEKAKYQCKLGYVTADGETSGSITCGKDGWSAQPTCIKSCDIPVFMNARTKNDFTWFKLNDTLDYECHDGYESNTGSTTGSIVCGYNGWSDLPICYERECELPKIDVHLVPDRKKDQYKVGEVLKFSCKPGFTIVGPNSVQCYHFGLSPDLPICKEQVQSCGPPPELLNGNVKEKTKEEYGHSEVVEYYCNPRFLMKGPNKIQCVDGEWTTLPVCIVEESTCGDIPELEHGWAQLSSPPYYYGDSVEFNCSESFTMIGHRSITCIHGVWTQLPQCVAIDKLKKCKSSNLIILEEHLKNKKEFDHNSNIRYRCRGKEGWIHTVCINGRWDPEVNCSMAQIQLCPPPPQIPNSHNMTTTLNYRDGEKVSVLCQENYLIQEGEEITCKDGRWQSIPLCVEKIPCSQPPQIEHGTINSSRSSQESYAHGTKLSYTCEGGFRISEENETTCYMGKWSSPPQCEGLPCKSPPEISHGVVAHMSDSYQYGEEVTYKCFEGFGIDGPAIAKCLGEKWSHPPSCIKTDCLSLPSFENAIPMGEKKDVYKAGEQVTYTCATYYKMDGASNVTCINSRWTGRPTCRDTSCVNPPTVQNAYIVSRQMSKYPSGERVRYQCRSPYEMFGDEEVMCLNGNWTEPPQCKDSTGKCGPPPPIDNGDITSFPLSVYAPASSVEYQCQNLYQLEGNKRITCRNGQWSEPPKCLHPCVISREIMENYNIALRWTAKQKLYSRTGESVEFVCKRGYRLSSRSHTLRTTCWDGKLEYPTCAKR
Chain of C3d C3d (Homo sapiens) (P01024 1002-1303): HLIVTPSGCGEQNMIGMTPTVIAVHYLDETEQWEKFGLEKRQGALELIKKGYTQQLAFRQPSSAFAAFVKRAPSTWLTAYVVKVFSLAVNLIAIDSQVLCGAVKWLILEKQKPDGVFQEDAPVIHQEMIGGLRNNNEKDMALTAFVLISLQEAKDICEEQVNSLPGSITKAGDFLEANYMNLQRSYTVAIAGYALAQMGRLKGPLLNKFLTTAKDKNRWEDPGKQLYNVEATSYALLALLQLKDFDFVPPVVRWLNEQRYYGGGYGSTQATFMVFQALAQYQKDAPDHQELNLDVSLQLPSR
Chain of FH fragment SCR-16/20 (domain or fragment) (P08603 19-1231): as the sequence (P08603 19-1231) above

stoichiometry N [2] | Substance | Kd [1] [µM] | Kd (C3d C3d (Homo sapiens)) [µM]
– | Complement factor H (from UniProt P08603) | 28 | 2.6
2 | FH fragment SCR-16/20 (domain or fragment) | – | –
